Experimental data taken from patent publication US20250043302A1, “MUTATED HYDROXYPHENYLPYRUVATE DIOXYGENASE POLYPEPTIDE, AND CODING GENE AND USE THEREOF” (BEIJING DABEINONG BIOTECHNOLOGY CO., LTD., priority 2021, published 2025).

Tested on: Arabidopsis thaliana T1 plants
Experiment: Mesotrione tolerance of transgenic Arabidopsis thaliana T1 plants (spray, bleached leaf area grade, damage score)
Assay type: in vivo
Design: Scores: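 damage score 0-100 computed as Σ(N×S)/(T×M)×100 over grades 0-3 with higher meaning more damage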
Conditions: for Classification and statistics of the grade of pesticide damage: Grade 0 / Classification and statistics of the grade of pesticide damage: Grade 1 / Classification and statistics of the grade of pesticide damage: Grade 2 / Classification and statistics of the grade of pesticide damage: Grade 3: number of plants
Method in brief: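 Damage was assessed by bleaching grade (0 none; 1 <50%; 2 >50%; 3 100% of leaf area) one week after spraying. Sprays on 18-day-old T1 and wild-type plants used field-rate multiples: topramezone 25–200, isoxaflutole 35–280, mesotrione 52.5–420 g ai/ha.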

[1] = mesotrione 210 g ai/ha (two-fold field concentration), 7 DAT, Table 3
[2] = mesotrione 210 g ai/ha, number of plants in grade
[3] = mesotrione 420 g ai/ha (4×), 7 DAT, Table 3
[4] = mesotrione 420 g ai/ha, number of plants in grade

B1: AsHPPD-02: nucleotide sequence encoding Avena sativa wild-type HPPD; vector DBN11727 (nucleic acid)
DNA: ATGCCACCTACTCCAGCTACAGCTACTGGTGCTGCTGCTGCTGCCGTTACTCCTGAGCACGCTGCCAGGTCATTCCCCAGGGTGGTTCGCGTGAACCCCAGATCTGATAGGTTCCCAGTTCTGAGCTTCCACCATGTTGAGCTGTGGTGCGCTGATGCTGCTTCTGCTGCTGGCAGGTTCTCTTTCGCTCTTGGTGCTCCACTCGCTGCTAGATCTGATCTGTCTACAGGAAATAGCGCTCATGCCTCACTCCTGCTTCGCTCAGGTGCTTTGGCCTTCCTCTTCACCGCTCCATATGCTCCCCCACCTCAGGAGGCTGCTACTGCTGCTGCTACAGCCTCCATTCCAAGCTTCTCAGCTGATGCCGCTAGAACCTTCGCTGCTGCTCATGGACTTGCCGTGAGGTCTGTTGGTGTTCGCGTGGCTGATGCTGCTGAGGCTTTCAGAGTTTCCGTTGCCGGCGGAGCTAGGCCAGCTTTCGCTCCTGCTGATTTGGGACATGGTTTCGGCCTGGCTGAGGTTGAGCTTTACGGTGACGTGGTTCTCCGCTTCGTGTCTTACCCAGATGAGACTGACCTGCCTTTCCTTCCCGGCTTCGAGAGAGTTTCCTCTCCTGGTGCCGTGGATTACGGCCTGACAAGGTTCGACCACGTGGTTGGAAACGTTCCCGAGATGGCTCCAGTGATCGATTACATGAAGGGCTTCCTTGGATTCCATGAGTTCGCCGAGTTCACTGCTGAGGACGTGGGAACCACTGAGTCCGGTTTGAACTCTGTGGTTCTCGCCAACAATTCTGAGGCTGTTTTGCTCCCTCTGAATGAGCCTGTGCATGGAACCAAGAGGAGAAGCCAGATTCAAACTTACCTGGAGTACCACGGTGGCCCTGGAGTTCAGCATATCGCCCTTGCTTCTAATGATGTGTTGCGCACACTCAGAGAGATGCGCGCCAGAACCCCCATGGGAGGTTTCGAGTTCATGGCCCCACCACAGGCTAAGTACTACGAGGGCGTTAGAAGGATTGCTGGAGACGTGTTGAGCGAGGAGCAGATCAAGGAGTGCCAAGAGCTGGGTGTTCTTGTGGATAGGGATGACCAGGGCGTTCTGCTTCAAATTTTCACTAAGCCAGTGGGCGACCGCCCTACATTCTTCCTTGAGATGATTCAAAGAATCGGCTGCATGGAGAAGGATGAGGTTGGACAGGAGTACCAAAAGGGCGGATGCGGTGGCTTCGGAAAGGGTAACTTCAGCGAGTTGTTCAAGTCAATCGAGGACTACGAGAAGAGCCTCGAGGTGAAGCAGTCAGTGGTTGCCCAAAAGTCCTGA
modifications: AsHPPD-02 Nucleotide Sequence
notes: vector DBN11727
With B1 the Resistance evaluation (Table 9, mesotrione 210 g ai/ha (2×)) was “Non-resistant”, the “Classification and statistics of the grade of pesticide damage Grade 0” value (Table 9, mesotrione 210 g ai/ha (2×), number of plants at grade 0) was 0 and the “Classification and statistics of the grade of pesticide damage Grade 1” value (Table 9, mesotrione 210 g ai/ha (2×), number of plants at grade 1) was 0. The “Classification and statistics of the grade of pesticide damage Grade 2” value (Table 9, mesotrione 210 g ai/ha (2×), number of plants at grade 2) was 0, the “Classification and statistics of the grade of pesticide damage Grade 3” value (Table 9, mesotrione 210 g ai/ha (2×), number of plants at grade 3) was 16 and the Scores (Table 9, mesotrione 210 g ai/ha (2×), pesticide damage score) was 100. For the same molecule, the Resistance evaluation (Table 9, mesotrione 420 g ai/ha (4×)) was “Non-resistant”, the “Classification and statistics of the grade of pesticide damage Grade 0” value (Table 9, mesotrione 420 g ai/ha (4×), number of plants at grade 0) was 0 and the “Classification and statistics of the grade of pesticide damage Grade 1” value (Table 9, mesotrione 420 g ai/ha (4×), number of plants at grade 1) was 0. For the same molecule, the “Classification and statistics of the grade of pesticide damage Grade 2” value (Table 9, mesotrione 420 g ai/ha (4×), number of plants at grade 2) was 0, the “Classification and statistics of the grade of pesticide damage Grade 3” value (Table 9, mesotrione 420 g ai/ha (4×), number of plants at grade 3) was 16 and the Scores (Table 9, mesotrione 420 g ai/ha (4×), pesticide damage score) was 100. For the same molecule, the Resistance evaluation (Table 12, mesotrione 210 g ai/ha (2×)) was “Non-resistant”, the “Classification and statistics of the grade of pesticide damage Grade 0” value (Table 12, mesotrione 210 g ai/ha (2×), number of plants at grade 0) was 0 and the “Classification and statistics of the grade of pesticide damage Grade 1” value (Table 12, mesotrione 210 g ai/ha (2×), number of plants at grade 1) was 0. The “Classification and statistics of the grade of pesticide damage Grade 2” value (Table 12, mesotrione 210 g ai/ha (2×), number of plants at grade 2) was 0, the “Classification and statistics of the grade of pesticide damage Grade 3” value (Table 12, mesotrione 210 g ai/ha (2×), number of plants at grade 3) was 16 and the Scores (Table 12, mesotrione 210 g ai/ha (2×), pesticide damage score) was 100. The Resistance evaluation (Table 12, mesotrione 420 g ai/ha (4×)) was “Non-resistant”, the “Classification and statistics of the grade of pesticide damage Grade 0” value (Table 12, mesotrione 420 g ai/ha (4×), number of plants at grade 0) was 0 and the “Classification and statistics of the grade of pesticide damage Grade 1” value (Table 12, mesotrione 420 g ai/ha (4×), number of plants at grade 1) was 0. For the same molecule, the “Classification and statistics of the grade of pesticide damage Grade 2” value (Table 12, mesotrione 420 g ai/ha (4×), number of plants at grade 2) was 0, the “Classification and statistics of the grade of pesticide damage Grade 3” value (Table 12, mesotrione 420 g ai/ha (4×), number of plants at grade 3) was 16 and the Scores (Table 12, mesotrione 420 g ai/ha (4×), pesticide damage score) was 100. The “tolerance to mesotrione (in words)” value (in vivo) was “no tolerance”, the Resistance evaluation (mesotrione 210 g ai/ha) was “Non-resistant” and the Scores (mesotrione 210 g ai/ha) was 100. For the same molecule, the Resistance evaluation [1] was “non-resistant (non-resistant plants (scores 68-100))”, the “Classification and statistics of the grade of pesticide damage Grade 0” value [2] was 0 and the “Classification and statistics of the grade of pesticide damage Grade 1” value [2] was 0. For the same molecule, the “Classification and statistics of the grade of pesticide damage Grade 2” value [2] was 0, the “Classification and statistics of the grade of pesticide damage Grade 3” value [2] was 16 and the Resistance evaluation (mesotrione 420 g ai/ha) was “Non-resistant”. The Scores (mesotrione 420 g ai/ha) was 100, the Resistance evaluation [3] was “non-resistant (non-resistant plants (scores 68-100))” and the “Classification and statistics of the grade of pesticide damage Grade 0” value [4] was 0. For the same molecule, the “Classification and statistics of the grade of pesticide damage Grade 1” value [4] was 0, the “Classification and statistics of the grade of pesticide damage Grade 2” value [4] was 0 and the “Classification and statistics of the grade of pesticide damage Grade 3” value [4] was 16. For the same molecule, the “Classification and statistics of the grade of pesticide damage: Grade 0” value [1] was 0, the “Classification and statistics of the grade of pesticide damage: Grade 1” value [1] was 0 and the “Classification and statistics of the grade of pesticide damage: Grade 2” value [1] was 0. For the same molecule, the “Classification and statistics of the grade of pesticide damage: Grade 3” value [1] was 16, the “Classification and statistics of the grade of pesticide damage: Grade 0” value [3] was 0 and the “Classification and statistics of the grade of pesticide damage: Grade 1” value [3] was 0. The “Classification and statistics of the grade of pesticide damage: Grade 2” value [3] was 0, the “Classification and statistics of the grade of pesticide damage: Grade 3” value [3] was 16 and the Scores (pesticide damage score 0-100, mesotrione 210 g ai/ha (two-fold field concentration), 7 DAT, Table 3) was 100. It also gave a Scores (pesticide damage score 0-100, mesotrione 420 g ai/ha (4×), 7 DAT, Table 3) of 100.
